# Assay results as given in PMC4838375.
# Key:
# Test in all cases: ITC
# [1] = target: PHDVC5HCH_(NSD1) tandem domain (murine NSD1, Glu2117–Asp2207), wild type (mouse)
# [2] = target: PHDVC5HCH_(NSD1) E2204A (mouse) (UniProt O88491)
# [3] = target: PHDVC5HCH_(NSD1) R2152Q (mouse) (UniProt O88491)
# [4] = target: PHDVC5HCH_(NSD1) H2205R (mouse) (UniProt O88491)
Kd [1],dH [1],stoichiometry N [1],Kd [2],Kd [3],dH [3],Kd [4],Substance
6.1 µM,2.2 kcal/mol,1.1,,,,,C2HR_(Nizp1) R415A (peptide)
36 µM,1.5 kcal/mol,1.1,,,,,C2HR_(Nizp1) R417A (peptide)
,1.7 kcal/mol,,,,,,C2HR_(Nizp1) R427A (peptide)
3.8 µM,4.1 kcal/mol,1.1,45.2 µM,4.9 µM,3.5 kcal/mol,27.2 µM,"C2HR_(Nizp1) synthetic peptide (murine Nizp1, E397-K434), wild type"
